# Source: article PMC7850899, “Nutrient transceptors physically interact with the yeast S6/protein kinase B homolog, Sch9, a TOR kinase target” (Biochemical Journal, 2021)
# T1: Gap1 peptide 222-236 with S234 replaced by E (substitution scan) (S. cerevisiae, UniProt P19145 222-236, S234E)
# T1 construct: source: synthesised on the PEPperCHIP substitution peptide microarray (PEPperPRINT)
# T1 peptide (looked up): GVKGYGEAEFVFEFI
# T2: Gap1 peptide 222-236 with V232 replaced by E (substitution scan) (S. cerevisiae, UniProt P19145 222-236, 232V replaced by E)
# T2 construct: source: synthesised on the PEPperCHIP substitution peptide microarray (PEPperPRINT)
# T2 peptide (looked up): GVKGYGEAEFEFSFI
# Columns and labels:
# [1] = target: T1, Gap1 peptide 222-236 with S234 replaced …; assay: peptide or protein array; PEPperCHIP substitution scan of …, 300 peptides in triplicate; 100 or 500 µg/ml GST-Sch9 or GST, 16 h at 4°C; detected with anti-GST DyLight680; conditions: both partners purified
# [2] = target: T2, Gap1 peptide 222-236 with V232 replaced …; assay: as above; conditions: both partners purified
binder,measurement,setting,value
"GST-tagged Sch9 (GST-Sch9) (enzyme, S. cerevisiae, UniProt P11792 1-824, looked up, Sch9 protein kinase of yeast, expressed from pGEX-Sch9 (pGEX-4T-1-Sch9); Plasmid from J. Bergsma; also called GST-Sch9p; source: purified from E. coli (peptide microarrays); not shown: GST, N-terminal, kept) MMNFFTSKSSNQDTGFSSQHQHPNGQNNGNNNSSTAGNDNGYPCKLVSSGPCASSNNGALFTNFTLQTATPTTAISQDLYAMGTTGITSENALFQMKSMNNGISSVNNNNSNTPTIITTSQEETNAGNVHGDTGGNSLQNSEDDNFSSSSTTKCLLSSTSSLSINQREAAAAAYGPDTDIPRGKLEVTIIEARDLVTRSKDSQPYVVCTFESSEFISNGPESLGAINNNNNNNNNNQHNQNQHINNNNENTNPDAASQHHNNNSGWNGSQLPSIKEHLKKKPLYTHRSSSQLDQLNSCSSVTDPSKRSSNSSSGSSNGPKNDSSHPIWHHKTTFDVLGSHSELDISVYDAAHDHMFLGQVRLYPMIHNLAHASQHQWHSLKPRVIDEVVSGDILIKWTYKQTKKRHYGPQDFEVLRLLGKGTFGQVYQVKKKDTQRIYAMKVLSKKVIVKKNEIAHTIGERNILVTTASKSSPFIVGLKFSFQTPTDLYLVTDYMSGGELFWHLQKEGRFSEDRAKFYIAELVLALEHLHDNDIVYRDLKPENILLDANGNIALCDFGLSKADLKDRTNTFCGTTEYLAPELLLDETGYTKMVDFWSLGVLIFEMCCGWSPFFAENNQKMYQKIAFGKVKFPRDVLSQEGRSFVKGLLNRNPKHRLGAIDDGRELRAHPFFADIDWEALKQKKIPPPFKPHLVSETDTSNFDPEFTTASTSYMNKHQPMMTATPLSPAMQAKFAGFTFVDESAIDEHVNNNRKFLQNSYFMEPGSFIPGNPNLPPDEDVIDDDGDEDINDGFNQEKNMNNSHSQMDFDGDQHMDDEFVSGRFEI",fold change of spot intensity against the wild type peptide,[1],> 5 fold
same,fold change of spot intensity against the wild type peptide,[2],3 fold
